From patent US20220204587A1

T1: TGF-β2 (UniProt P61812)
T1 sequence (looked up): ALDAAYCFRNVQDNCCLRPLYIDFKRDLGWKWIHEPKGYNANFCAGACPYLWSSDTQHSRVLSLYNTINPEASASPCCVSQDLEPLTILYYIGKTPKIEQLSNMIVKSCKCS


Experiments:
Test in all cases: cell-based or functional assay
TGF-β2 = target: T1, TGF-β2
TGF-β1 = TGF-β1 (UniProt P01137)
TGF-β3 = TGF-β3 (UniProt P10600)
TGF-β3, sequence (P10600 301-412 limits assumed): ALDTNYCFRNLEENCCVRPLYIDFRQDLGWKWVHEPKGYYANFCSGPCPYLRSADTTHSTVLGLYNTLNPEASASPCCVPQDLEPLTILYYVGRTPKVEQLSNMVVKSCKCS

TGF-β1, sequence (P01137 279-390 limits assumed): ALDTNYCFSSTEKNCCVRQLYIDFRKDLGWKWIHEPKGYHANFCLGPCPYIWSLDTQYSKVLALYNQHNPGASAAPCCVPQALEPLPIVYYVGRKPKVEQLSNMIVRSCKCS

IC50 (nM), neutralization of TGF-β-induced IL-11 release by A549 cells (TGF-β2) | IC50 (nM), neutralization of TGF-β1-induced IL-11 release by A549 cells (TGF-β1) | IC50 (nM), neutralization of TGF-β-induced IL-11 release by A549 cells (TGF-β1) | fold better neutralization potency than T2m-Fc (A549 IL-11 release assay) (TGF-β1) | fold better neutralization potency than T22d35 (A549 IL-11 release assay) (TGF-β1) | IC50 (nM), neutralization of TGF-β-induced IL-11 release by A549 cells (TGF-β3) | fold better neutralization potency than T2m-Fc (A549 IL-11 release assay) (TGF-β3) | fold better neutralization potency than T22d35 (A549 IL-11 release assay) (TGF-β3) | Binder
10.6 nM | 0.00286 nM | 0.00335 nM | 615 fold | 970 fold | 0.00391 nM | 24 fold | 240 fold | T22d35-Fc fusion protein (TβRII-ECD doublet fused to the N-terminus of a human IgG2 Fc, hinge …) (Fc fusion) IPPHVQKSVNNDMIVTDNNGAVKFPQLCKFCDVRFSTCDNQKSCMSNCSITSICEKPQEVCVAVWRKNDENITLETVCHDPKLPYHDFILEDAASPKCIMKEKKKPGETFFMCSCSSDECNDNIIFSEEYNTSNPDIPPHVQKSVNNDMIVTDNNGAVKFPQLCKFCDVRFSTCDNQKSCMSNCSITSICEKPQEVCVAVWRKNDENITLETVCHDPKLPYHDFILEDAASPKCIMKEKKKPGETFFMCSCSSDECNDNIIFSEEYNTSNPDERKCCVECPPCPAPPVAGPSVFLFPPKPKDTLMISRTPEVTCVVVDVSHEDPEVQFNWYVDGVEVHNAKTKPREEQFNSTFRVVSVLTVVHQDWLNGKEYKCKVSNKGLPAPIEKTISKTKGQPREPQVYTLPPSREEMTKNQVSLTCLVKGFYPSDISVEWESNGQPENNYKTTPPMLDSDGSFFLYSKLTVDKSRWQQGNVFSCSVMHEALHNHYTQKSLSLSPG
– | 0.00278 nM | – | – | – | – | – | – | T22d35-Fc-IgG2-v2 (CC) (Fc fusion) IPPHVQKSVNNDMIVTDNNGAVKFPQLCKFCDVRFSTCDNQKSCMSNCSITSICEKPQEVCVAVWRKNDENITLETVCHDPKLPYHDFILEDAASPKCIMKEKKKPGETFFMCSCSSDECNDNIIFSEEYNTSNPDIPPHVQKSVNNDMIVTDNNGAVKFPQLCKFCDVRFSTCDNQKSCMSNCSITSICEKPQEVCVAVWRKNDENITLETVCHDPKLPYHDFILEDAASPKCIMKEKKKPGETFFMCSCSSDECNDNIIFSEEYNTSNPDVECPPCPAPPVAGPSVFLFPPKPKDTLMISRTPEVTCVVVDVSHEDPEVQFNWYVDGVEVHNAKTKPREEQFNSTFRVVSVLTVVHQDWLNGKEYKCKVSNKGLPAPIEKTISKTKGQPREPQVYTLPPSREEMTKNQVSLTCLVKGFYPSDISVEWESNGQPENNYKTTPPMLDSDGSFFLYSKLTVDKSRWQQGNVFSCSVMHEALHNHYTQKSLSLSPG
